According to patent publication US20220010021A1 (Sanofi, published 2022):
Changes are numbered by the printed parent chain. One block for each binder: values may come before it.

Tests used:
[1] = target: cell surface receptor composed of the tyrosine kinase receptor FGFR1c and co-receptor beta-Klotho (KLB) (human, UniProt P11362 22-822; Q86Z14 1-1044); assay: cell-based or functional assay
[2] = target: T1, beta-Klotho (KLB) (Homo sapiens (Human), UniProt Q86Z14 1-996); assay: BLI (Octet) off-rate screening, mAb from supernatant on anti-hIgG Fc sensor, 5 nmol/L KLB;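 further: dissociation followed for 1800 s in D-PBS plus 0.1% BSA, antibody supernatants applied at 25 µg/mL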
T1 construct: also called β-Klotho; not shown: C-terminal His tag of the bought R&D Systems protein
T1 sequence: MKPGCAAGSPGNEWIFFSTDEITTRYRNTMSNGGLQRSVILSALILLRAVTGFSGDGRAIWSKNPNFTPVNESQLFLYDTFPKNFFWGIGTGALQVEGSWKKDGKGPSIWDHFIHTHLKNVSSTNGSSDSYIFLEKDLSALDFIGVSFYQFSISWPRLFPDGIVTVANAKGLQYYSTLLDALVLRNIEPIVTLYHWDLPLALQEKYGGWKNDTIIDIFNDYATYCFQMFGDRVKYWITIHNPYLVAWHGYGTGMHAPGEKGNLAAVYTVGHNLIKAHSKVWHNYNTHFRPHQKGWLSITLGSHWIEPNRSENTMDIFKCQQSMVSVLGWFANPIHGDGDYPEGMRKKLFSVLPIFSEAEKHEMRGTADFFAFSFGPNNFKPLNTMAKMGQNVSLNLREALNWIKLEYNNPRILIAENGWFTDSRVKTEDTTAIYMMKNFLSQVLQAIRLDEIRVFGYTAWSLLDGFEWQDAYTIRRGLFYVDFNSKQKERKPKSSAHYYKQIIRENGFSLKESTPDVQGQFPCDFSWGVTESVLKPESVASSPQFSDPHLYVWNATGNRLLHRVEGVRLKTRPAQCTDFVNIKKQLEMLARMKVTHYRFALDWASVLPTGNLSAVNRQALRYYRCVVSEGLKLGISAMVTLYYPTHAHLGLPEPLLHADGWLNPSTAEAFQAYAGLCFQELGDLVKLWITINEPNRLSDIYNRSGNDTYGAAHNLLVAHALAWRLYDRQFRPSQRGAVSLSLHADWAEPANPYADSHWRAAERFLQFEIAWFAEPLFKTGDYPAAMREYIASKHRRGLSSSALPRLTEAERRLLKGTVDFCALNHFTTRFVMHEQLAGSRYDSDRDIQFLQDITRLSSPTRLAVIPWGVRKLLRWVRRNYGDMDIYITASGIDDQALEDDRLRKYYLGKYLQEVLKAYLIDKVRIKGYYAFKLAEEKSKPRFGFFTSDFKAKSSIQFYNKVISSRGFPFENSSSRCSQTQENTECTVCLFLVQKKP

[3] = target: T2, human beta-Klotho (KLB) (human, UniProt Q86Z14 53-997); assay: SPR;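 further: Anti-KLB antibodies captured on anti-human Fc CM5 chip, KLB injected as analyte, 180 s association and 1800 s dissociation, fitted to 1:1 binding model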
T2 construct: bought protein; also called human KLB
T2 sequence (looked up): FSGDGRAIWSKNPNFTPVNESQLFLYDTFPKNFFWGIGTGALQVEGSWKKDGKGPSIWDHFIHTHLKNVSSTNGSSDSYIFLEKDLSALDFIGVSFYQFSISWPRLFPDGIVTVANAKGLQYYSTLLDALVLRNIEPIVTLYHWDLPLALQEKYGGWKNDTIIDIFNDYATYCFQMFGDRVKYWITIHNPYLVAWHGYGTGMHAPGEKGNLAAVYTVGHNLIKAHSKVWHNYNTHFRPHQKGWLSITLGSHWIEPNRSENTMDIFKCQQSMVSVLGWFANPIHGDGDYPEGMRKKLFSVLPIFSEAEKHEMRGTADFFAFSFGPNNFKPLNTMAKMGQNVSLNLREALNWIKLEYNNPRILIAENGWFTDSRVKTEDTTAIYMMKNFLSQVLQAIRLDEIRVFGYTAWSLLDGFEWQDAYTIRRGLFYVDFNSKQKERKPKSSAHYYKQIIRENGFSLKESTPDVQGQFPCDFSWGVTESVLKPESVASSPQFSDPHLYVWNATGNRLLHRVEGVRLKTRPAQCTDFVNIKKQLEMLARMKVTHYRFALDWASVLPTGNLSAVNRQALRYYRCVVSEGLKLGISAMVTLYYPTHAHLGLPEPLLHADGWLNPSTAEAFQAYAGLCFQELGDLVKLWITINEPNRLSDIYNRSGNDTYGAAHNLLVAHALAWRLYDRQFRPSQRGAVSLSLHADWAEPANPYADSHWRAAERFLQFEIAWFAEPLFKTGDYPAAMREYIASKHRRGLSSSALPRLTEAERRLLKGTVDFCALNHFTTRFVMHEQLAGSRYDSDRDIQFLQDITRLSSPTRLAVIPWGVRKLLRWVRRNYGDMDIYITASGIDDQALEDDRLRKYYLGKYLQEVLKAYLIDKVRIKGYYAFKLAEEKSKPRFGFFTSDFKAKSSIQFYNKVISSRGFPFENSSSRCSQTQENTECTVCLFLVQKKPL

[4] = target: human FGFR1c + KLB receptor complex on HEK293 iLite FGF21 reporter cells (human, UniProt P11362 22-822; Q86Z14 1-1044); assay: cell-based or functional assay
human FGFR1c + KLB receptor complex on HEK293 iLite FGF21 reporter cells, sequence (P11362 22-822, chain 1 of 2): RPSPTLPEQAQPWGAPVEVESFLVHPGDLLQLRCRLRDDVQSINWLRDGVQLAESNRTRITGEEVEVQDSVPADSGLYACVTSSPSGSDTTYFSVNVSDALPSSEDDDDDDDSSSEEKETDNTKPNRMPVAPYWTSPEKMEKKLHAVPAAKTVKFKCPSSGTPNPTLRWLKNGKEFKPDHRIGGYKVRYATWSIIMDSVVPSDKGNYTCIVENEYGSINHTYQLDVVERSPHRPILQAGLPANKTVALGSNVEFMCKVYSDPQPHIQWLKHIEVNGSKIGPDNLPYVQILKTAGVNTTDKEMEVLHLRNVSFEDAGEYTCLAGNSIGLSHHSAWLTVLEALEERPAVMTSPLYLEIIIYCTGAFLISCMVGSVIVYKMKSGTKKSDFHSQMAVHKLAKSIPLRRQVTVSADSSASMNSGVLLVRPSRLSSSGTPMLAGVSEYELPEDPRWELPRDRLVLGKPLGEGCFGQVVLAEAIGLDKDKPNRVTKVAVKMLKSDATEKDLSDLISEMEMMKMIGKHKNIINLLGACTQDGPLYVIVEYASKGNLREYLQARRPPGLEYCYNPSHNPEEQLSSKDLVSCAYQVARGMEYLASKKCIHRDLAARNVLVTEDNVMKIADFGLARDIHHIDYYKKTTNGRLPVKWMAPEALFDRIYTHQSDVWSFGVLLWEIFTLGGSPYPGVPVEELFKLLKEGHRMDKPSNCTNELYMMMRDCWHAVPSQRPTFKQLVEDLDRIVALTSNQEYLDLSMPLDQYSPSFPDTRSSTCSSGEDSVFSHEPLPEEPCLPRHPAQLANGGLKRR
human FGFR1c + KLB receptor complex on HEK293 iLite FGF21 reporter cells, sequence (Q86Z14 whole entry, chain 2 of 2): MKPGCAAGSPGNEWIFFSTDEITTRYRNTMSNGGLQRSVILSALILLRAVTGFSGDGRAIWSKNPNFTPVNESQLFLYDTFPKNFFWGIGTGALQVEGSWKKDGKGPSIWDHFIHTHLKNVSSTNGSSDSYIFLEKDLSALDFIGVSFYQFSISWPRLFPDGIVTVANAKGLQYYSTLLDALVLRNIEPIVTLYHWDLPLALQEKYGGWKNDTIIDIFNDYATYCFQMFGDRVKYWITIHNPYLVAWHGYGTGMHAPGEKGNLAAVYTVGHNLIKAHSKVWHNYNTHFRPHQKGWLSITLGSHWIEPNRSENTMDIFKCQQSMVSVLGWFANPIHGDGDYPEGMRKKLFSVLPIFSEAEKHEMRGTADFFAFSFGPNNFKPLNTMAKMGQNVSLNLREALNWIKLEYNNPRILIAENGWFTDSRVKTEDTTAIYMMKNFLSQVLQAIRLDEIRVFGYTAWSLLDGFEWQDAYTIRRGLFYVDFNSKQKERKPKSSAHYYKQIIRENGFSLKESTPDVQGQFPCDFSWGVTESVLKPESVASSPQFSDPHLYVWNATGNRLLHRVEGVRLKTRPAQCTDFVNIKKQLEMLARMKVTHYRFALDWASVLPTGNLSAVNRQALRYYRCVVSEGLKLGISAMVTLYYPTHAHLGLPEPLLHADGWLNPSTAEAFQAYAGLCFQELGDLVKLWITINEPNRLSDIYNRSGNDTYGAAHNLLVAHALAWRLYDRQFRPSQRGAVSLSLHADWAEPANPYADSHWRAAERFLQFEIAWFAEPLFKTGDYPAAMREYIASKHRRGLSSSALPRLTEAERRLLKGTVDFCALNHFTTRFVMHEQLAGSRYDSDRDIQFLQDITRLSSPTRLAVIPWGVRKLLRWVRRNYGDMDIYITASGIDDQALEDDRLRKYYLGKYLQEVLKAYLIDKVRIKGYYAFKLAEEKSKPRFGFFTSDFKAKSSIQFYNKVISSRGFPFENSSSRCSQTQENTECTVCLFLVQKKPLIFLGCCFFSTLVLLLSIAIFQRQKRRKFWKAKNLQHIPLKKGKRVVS

cell surface receptor composed of the tyrosine kinase receptor FGFR1c and co-receptor beta-Klotho (KLB), sequence (P11362 22-822, one chain of several): as the sequence (P11362 22-822, chain 1 of 2) above

B1: 16H7 variant with light chain substitution S94G (antibody, human IgG4 S228P, lambda, V domains shown)
VH: not shown
VL: SYVLTQPPSVSVAPGQTARITCGGNNIGSESVHWYQQKPGQAPVLVVYDDSDRPSGIPERFSGSNSGNTATLTISRVEAGDEADYYCQVWDGNGDHVVFGGGTKLTVLG
notes: IgG4 backbone was used
- Mean E max, Luciferase gene reporter assay [1]: 100%
- Mean EC50, Luciferase gene reporter assay [1]: 0.146 nM
- koff [2]: 6.8e-05 s⁻¹

B3: 16H7 variant with light chain substitution H96R (antibody, human IgG4 S228P, lambda, V domains shown)
VH: not shown
VL: B1 VL with G94S, H96R
notes: IgG4 backbone was used
- Mean E max, Luciferase gene reporter assay [1]: 102%
- Mean EC50, Luciferase gene reporter assay [1]: 0.095 nM
- koff [2]: 0.00014 s⁻¹

B6: 16H7 variant with light chain substitution D95M (antibody, human IgG4 S228P, lambda, V domains shown)
VH: not shown
VL: B1 VL with G94S, D95M
notes: IgG4 backbone was used
- Mean E max, Luciferase gene reporter assay [1]: 8%
- koff [2]: 1.4e-05 s⁻¹

B9: 16H7 variant with light chain substitution H96L (antibody, human IgG4 S228P, lambda, V domains shown)
VH: not shown
VL: B1 VL with G94S, H96L
notes: IgG4 backbone was used
- Mean E max, Luciferase gene reporter assay [1]: 98%
- Mean EC50, Luciferase gene reporter assay [1]: 0.176 nM
- koff [2]: 0.00013 s⁻¹

B13: 16H7 variant with light chain substitution D95Y (antibody, human IgG4 S228P, lambda, V domains shown)
VH: not shown
VL: B1 VL with G94S, D95Y
notes: IgG4 backbone was used
- Mean E max, Luciferase gene reporter assay [1]: 4%
- koff [2]: 0.00013 s⁻¹

B14: 16H7 variant with light chain substitution H96E (antibody, human IgG4 S228P, lambda, V domains shown)
VH: not shown
VL: B1 VL with G94S, H96E
notes: IgG4 backbone was used
- Mean E max, Luciferase gene reporter assay [1]: 100%
- Mean EC50, Luciferase gene reporter assay [1]: 0.122 nM
- koff [2]: 1.1e-05 s⁻¹

B15: 16H7 variant with light chain substitution D95H (antibody, human IgG4 S228P, lambda, V domains shown)
VH: not shown
VL: B1 VL with G94S, D95H
notes: IgG4 backbone was used
- Mean E max, Luciferase gene reporter assay [1]: 33%
- Mean EC50, Luciferase gene reporter assay [1]: 29.7 nM
- koff [2]: 8.1e-06 s⁻¹

B17: 16H7 variant with light chain substitution H96T (antibody, human IgG4 S228P, lambda, V domains shown)
VH: not shown
VL: B1 VL with G94S, H96T
notes: IgG4 backbone was used
- Mean E max, Luciferase gene reporter assay [1]: 110%
- Mean EC50, Luciferase gene reporter assay [1]: 0.11 nM
- koff [2]: 1.8e-05 s⁻¹

B19: 16H7 variant with light chain substitution H96D (antibody, human IgG4 S228P, lambda, V domains shown)
VH: not shown
VL: B1 VL with G94S, H96D
notes: IgG4 backbone was used
- Mean E max, Luciferase gene reporter assay [1]: 100%
- Mean EC50, Luciferase gene reporter assay [1]: 0.111 nM
- koff [2]: 2.2e-05 s⁻¹

B20: 16H7 variant with light chain substitution H96K (antibody, human IgG4 S228P, lambda, V domains shown)
VH: not shown
VL: B1 VL with G94S, H96K
notes: IgG4 backbone was used
- Mean E max, Luciferase gene reporter assay [1]: 98%
- Mean EC50, Luciferase gene reporter assay [1]: 0.179 nM
- koff [2]: 6.4e-05 s⁻¹

B22: 16H7 variant with light chain substitution H96N (antibody, human IgG4 S228P, lambda, V domains shown)
VH: not shown
VL: B1 VL with G94S, H96N
notes: IgG4 backbone was used
- Mean E max, Luciferase gene reporter assay [1]: 112%
- Mean EC50, Luciferase gene reporter assay [1]: 0.143 nM
- koff [2]: 4.4e-05 s⁻¹

B23: 16H7 variant with light chain substitution H96S (antibody, human IgG4 S228P, lambda, V domains shown)
VH: not shown
VL: B1 VL with G94S, H96S
notes: IgG4 backbone was used
- Mean E max, Luciferase gene reporter assay [1]: 102%
- Mean EC50, Luciferase gene reporter assay [1]: 0.097 nM
- koff [2]: 3e-05 s⁻¹

B24: 16H7 variant with light chain substitution D95I (antibody, human IgG4 S228P, lambda, V domains shown)
VH: not shown
VL: B1 VL with G94S, D95I
notes: IgG4 backbone was used
- Mean E max, Luciferase gene reporter assay [1]: 4%
- koff [2]: 0.00016 s⁻¹

B25: 16H7 variant with light chain substitution D95A (antibody, human IgG4 S228P, lambda, V domains shown)
VH: not shown
VL: B1 VL with G94S, D95A
notes: IgG4 backbone was used
- Mean E max, Luciferase gene reporter assay [1]: 12%
- koff [2]: 0.0002 s⁻¹

B26: 16H7 variant with light chain substitution H96G (antibody, human IgG4 S228P, lambda, V domains shown)
VH: not shown
VL: B1 VL with G94S, H96G
notes: IgG4 backbone was used
- Mean E max, Luciferase gene reporter assay [1]: 95%
- Mean EC50, Luciferase gene reporter assay [1]: 0.13 nM
- koff [2]: 0.00015 s⁻¹

B27: 16H7 variant with light chain substitution H96Q (antibody, human IgG4 S228P, lambda, V domains shown)
VH: not shown
VL: B1 VL with G94S, H96Q
notes: IgG4 backbone was used
- Mean E max, Luciferase gene reporter assay [1]: 104%
- Mean EC50, Luciferase gene reporter assay [1]: 0.106 nM
- koff [2]: 5e-05 s⁻¹

The remaining lines, values ahead:

- koff [3]: 0.000303 s⁻¹
- EC50 [4]: 0.06 nM
- Emax [4]: 1110%
B2: Ab0417 (antibody, IgG4, V domains shown)
VH: QVTLKESGPVLVKPTETLTLTCTVSGFSLNNARVGVSWIRQPPGKALEWLAHIFSNDEKSYSTSLKSRLTISKDTSKSQVVLTMTNMDPVDTATYYCARSVVTGGYYYEGMDVWGQGTTVTVSS
VL: B1 VL with N25S, D49Y, D50E, D91H, N93E, G94S
notes: IgG4 PE

- koff [3]: 0.00107 s⁻¹
- EC50 [4]: 0.05 nM
- Emax [4]: 863%
B4: Ab0416 (antibody, IgG4, V domains shown)
VH: B2 VH
VL: B1 VL with N25S, D49Y, D50E, D91E, N93E, G94S
notes: IgG4 PE

- Mean E max, Luciferase gene reporter assay [1]: 91%
- Mean EC50, Luciferase gene reporter assay [1]: 0.13 nM
- koff [2]: 4.1e-05 s⁻¹
B5: 16H7 variant with light chain substitution H96V (antibody, human IgG4 S228P, lambda, V domains shown)
VH: not shown
VL: B1 VL with G94S, H96V
notes: IgG4 backbone was used

- Mean E max, Luciferase gene reporter assay [1]: 101%
- Mean EC50, Luciferase gene reporter assay [1]: 0.105 nM
- koff [2]: 3.4e-05 s⁻¹
B7: 16H7 variant with light chain substitution N93S (antibody, human IgG4 S228P, lambda, V domains shown)
VH: not shown
VL: B1 VL with N93S, G94S
notes: IgG4 backbone was used

- Mean E max, Luciferase gene reporter assay [1]: 108%
- Mean EC50, Luciferase gene reporter assay [1]: 0.123 nM
- koff [2]: 3.8e-05 s⁻¹
B8: 16H7 variant with light chain substitution N93D (antibody, human IgG4 S228P, lambda, V domains shown)
VH: not shown
VL: B1 VL with N93D, G94S
notes: IgG4 backbone was used

- Mean E max, Luciferase gene reporter assay [1]: 100%
- Mean EC50, Luciferase gene reporter assay [1]: 0.186 nM
- koff [2]: 5e-05 s⁻¹
B10: 16H7 variant with light chain substitution N93R (antibody, human IgG4 S228P, lambda, V domains shown)
VH: not shown
VL: B1 VL with N93R, G94S
notes: IgG4 backbone was used

- Mean E max, Luciferase gene reporter assay [1]: 103%
- Mean EC50, Luciferase gene reporter assay [1]: 0.155 nM
- koff [2]: 0.00012 s⁻¹
B11: 16H7 variant with light chain substitution H96W (antibody, human IgG4 S228P, lambda, V domains shown)
VH: not shown
VL: B1 VL with G94S, H96W
notes: IgG4 backbone was used

- Mean E max, Luciferase gene reporter assay [1]: 107%
- Mean EC50, Luciferase gene reporter assay [1]: 0.148 nM
- koff [2]: 5.8e-05 s⁻¹
B12: 16H7 variant with light chain substitution N93C (antibody, human IgG4 S228P, lambda, V domains shown)
VH: not shown
VL: B1 VL with N93C, G94S
notes: IgG4 backbone was used

- Mean E max, Luciferase gene reporter assay [1]: 101%
- Mean EC50, Luciferase gene reporter assay [1]: 0.108 nM
- koff [2]: 7.5e-06 s⁻¹
B16: 16H7 variant with light chain substitution N93A (antibody, human IgG4 S228P, lambda, V domains shown)
VH: not shown
VL: B1 VL with N93A, G94S
notes: IgG4 backbone was used

- Mean E max, Luciferase gene reporter assay [1]: 100%
- Mean EC50, Luciferase gene reporter assay [1]: 0.165 nM
- koff [2]: 2.2e-06 s⁻¹
B18: 16H7 variant with light chain substitution N93F (antibody, human IgG4 S228P, lambda, V domains shown)
VH: not shown
VL: B1 VL with N93F, G94S
notes: IgG4 backbone was used

- Mean E max, Luciferase gene reporter assay [1]: 103%
- Mean EC50, Luciferase gene reporter assay [1]: 0.134 nM
- koff [2]: 6.9e-05 s⁻¹
B21: 16H7 variant with light chain substitution H96Y (antibody, human IgG4 S228P, lambda, V domains shown)
VH: not shown
VL: B1 VL with G94S, H96Y
notes: IgG4 backbone was used
